Test results: patent US20090305982A1

Tests used:
[1] = molecular target: cynomolgus IL-4 receptor alpha on peripheral blood lymphocytes (cynomolgus); experiment: flow cytometry, cynomolgus peripheral blood lymphocytes, 10 µg/ml
[2] = molecular target: human IL-4 receptor alpha on cells (peripheral blood lymphocytes, primary B cells, TF-1, A549, PBMC) (human) (UniProt P24394); experiment: flow cytometry, human peripheral blood lymphocytes, 10 µg/ml
[3] = molecular target: human IL-4 receptor alpha on cells (peripheral blood lymphocytes, primary B cells, TF-1, A549, PBMC) (human) (UniProt P24394); experiment: cell-based or functional assay

wildtype tear lipocalin (gene product of pTLPC10) (from UniProt P31025 23-175)
% Positive [1]: 5% | MFI [1]: 1.9 | % Positive [2]: 9% | MFI [2]: 3.2 | % Positive for STAT-6 phosphorylation, TF-1 cells + IL-4 [3]: 72% | % Positive for STAT-6 phosphorylation, TF-1 cells + IL-13 [3]: 84% | MFI, STAT-6 phosphorylation, TF-1 cells + IL-4 [3]: 13.1 | MFI, STAT-6 phosphorylation, TF-1 cells + IL-13 [3]: 18.6
